The source of these data is article PMC2714988, “Dimerization of Hepatitis E Virus Capsid Protein E2s Domain Is Essential for Virus–Host Interaction” (PLoS Pathogens, 2009).

The target of experiment [1] is E2-D496A (Hepatitis E virus) (UniProt Q81871). The experiment in a line: non-reducing SDS-PAGE; loading buffer with only 0.1% SDS, no BME, sample not boiled; compared with MW markers.
The target of experiment [2] is E2-E479A (Hepatitis E virus) (UniProt Q81871). The experiment is described as above.
Experiment [3] addresses E2-I529A (Hepatitis E virus) (UniProt Q81871). Described as above.
The target of experiment [4] is E2-K534A (Hepatitis E virus) (UniProt Q81871). The experiment is described as above.
The target of experiment [5] is E2-R542A (Hepatitis E virus) (UniProt Q81871). Nature of the experiment: not stated; 'in solution'; the paragraph names non-reducing SDS-PAGE, analytical ultracentrifugation and gel filtration for the mutants without telling which was used here.
Experiment [6] deals with E2-Y485A (Hepatitis E virus) (UniProt Q81871). Nature of the experiment: non-reducing SDS-PAGE; loading buffer with only 0.1% SDS, no BME, sample not boiled; compared with MW markers.
Experiment [7] has as its target E2s-Y557A (Hepatitis E virus) (UniProt Q81871). The experiment in a line: AUC; sedimentation equilibrium; 20°C; phosphate-buffered saline pH 7.4; E2s at 0.69, 0.36 and 0.14 OD; 18,000, 21,000 and 24,000 rpm; single ideal species model and self-association monomer-dimer model; dimer to monomers.
Experiment [8] concerns the target HEV capsid protein domain E2s (ORF2 aa455-602) (Hepatitis E virus) (UniProt Q81871). Nature of the experiment: AUC; sedimentation velocity; 20°C; E2s 1 mg/ml in phosphate-buffered saline pH 7.4; 60,000 rpm; c(s) method.
The target is the same in experiment [9]. The experiment in a line: SEC; Superdex 75 10/300GL in phosphate-buffered saline pH 7.4, 0.5 ml/min, against molecular weight standards.
Experiment [10] shares this target. Nature of the experiment: AUC; sedimentation equilibrium; 20°C; phosphate-buffered saline pH 7.4; E2s at 0.69, 0.36 and 0.14 OD; 18,000, 21,000 and 24,000 rpm; single ideal species model and self-association monomer-dimer model; dimer to monomers.
For experiment [11], the target named is HEV capsid protein E2 (ORF2 aa394-606), wild type (Hepatitis E virus, UniProt Q81871 394-606). Nature of the experiment: non-reducing SDS-PAGE; loading buffer with only 0.1% SDS, no BME, sample not boiled; compared with MW markers. Particulars: both partners purified.

“E2-D496A (from UniProt Q81871 394-606) (domain or fragment)” came in with a stoichiometry N in experiment [1] of 2.

Turning to “E2-E479A (from UniProt Q81871 394-606) (domain or fragment)”, the stoichiometry N in experiment [2] turned out to be 2. Molecule “E2-I529A (from UniProt Q81871 394-606) (domain or fragment)” yielded a stoichiometry N in experiment [3] of 2. Take “E2-K534A (from UniProt Q81871 394-606) (domain or fragment)”: the stoichiometry N in [4] is 2.

The molecule “E2-R542A (from UniProt Q81871 394-606) (domain or fragment)” gave a stoichiometry N in [5] of 2. On to “E2-Y485A (from UniProt Q81871 394-606) (domain or fragment)”, for which the stoichiometry N in experiment [6] came to 2. In [7], “E2s-Y557A (from UniProt Q81871 455-602) (domain or fragment)” gave a stoichiometry N of 2.

For the molecule “HEV capsid protein domain E2s (ORF2 aa455-602) (from UniProt Q81871 455-602) (domain or fragment)”, the stoichiometry N in experiment [8], in experiment [9] and in [10] was 2 each time. In experiment [10], this molecule showed a Kd of 397 nM.

B1: HEV capsid protein E2 (ORF2 aa394-606), wild type (domain or fragment)
chain: MQLFYSRPVVSANGEPTVKLYTSVENAQQDKGIAIPHDIDLGESRVVIQDYDNQHEQDRPTPSPAPSRPFSVLRANDVLWLSLTAAEYDQSTYGSSTGPVYVSDSVTLVNVATGAQAVARSLDWTKVTLDGRPLSTIQQHSKTFFVLPLRGKLSFWEAGTTKAGYPYNYNTTASDQLLVENAAGHRVAISTYTTSLGAGPVSISAVAVLAPHSA
modifications: Wild-type E2, aa394-606, with start Met. The E2s gene was amplified from this E2 gene, so aa455-602 are taken from 3GGQ; the flanks come from genotype 1 Q81871 because the strain is not printed. …
As for B1, in experiment [11], the “stoichiometry N” value was 2.
